From paper PMC4105751 (RNA, 2014)

Experiments:
[1] = biological target: the molecule itself; experiment: SAXS with inline size-exclusion chromatography
crystal structure [2] = biological target: the molecule itself; experiment: crystal structure
crystal structure [3] = biological target: the molecule itself; experiment: crystal structure; remark: listed apart in the source

B1: C-terminal domain of TrmJ of Escherichia coli (EcTrmJ167-246) (domain or fragment, E. coli, UniProt P0AE01 167-246, looked up)
chain: GEQVEHEETPYPLVDDLERFYGHLEQTLLATGFIRENHPGQVMNKLRRLFTRARPESQELNILRGILASIEQQNKGNKAE
[1]
  stoichiometry N: 2

B2: N-terminal SPOUT domain of TrmJ of Sulfolobus acidocaldarius (SaTrmJ1-157) (domain or fragment, UniProt Q4JB16 1-157, looked up)
chain: MTIRLVIVEPEGAYNLGFIARLVKNFLIDEFYVVNPKADINEAIKFSAKGSEVIEKMMKITNNFDDAIRDVDLKIATSSIADIKGDLLRKSIRPIDLERLIKDKKVAFIFGRESVGLTREEIAKSDFLLFIPANPEYPVLNLSHAVGIVLYELWRNR
Crystal structure [2]
  stoichiometry N: 2

B3: N-terminal SPOUT domain of TrmJ of Escherichia coli (EcTrmJ1-164) (domain or fragment, E. coli, UniProt P0AE01 1-164, looked up)
chain: MLQNIRIVLVETSHTGNMGSVARAMKTMGLTNLWLVNPLVKPDSQAIALAAGASDVIGNAHIVDTLDEALAGCSLVVGTSARSRTLPWPMLDPRECGLKSVAEAANTPVALVFGRERVGLTNEELQKCHYHVAIAANPEYSSLNLAMAVQVIAYEVRMAWLATQ
Crystal structure [3]
  stoichiometry N: 2
